According to patent US5336488A, “Method of treating or preventing mastitis in animals with involuting mammary glands by administering recombinant cytokines” (American Cyanamid Company, priority 1992, dated 1994):

Tests used:
[1] = system: milk PMNs; assay: Phagocytosis of fluorescent beads by milk PMNs (flow cytometry) after intramammary infusion; type: in vivo, bovine (Holstein dairy cattle)
Protocol: (§1) FIGS. 2(A-I): Quantity and Quality of Milk PMNs from Mammary Glands Infused with r-BolL-1 or r-BoIL-2
(§2) A total of 12 mammary glands from normal lactating Holstein dairy cattle are infused through the teat canal with either 200 μg of r-BoIL-1; 2 mg of r-BoIL-2; or 1 mg of r-BoGM-CSF. Milk samples are collected and the number of viable somatic cells counted on a Coulter® ZM with a C256 Channelyzer. The data is expressed as the somatic cell count per ml of milk sampled at 16, 40, 64 and 88 hours after infusion for r-BoIL-1 (A); r-BoIL-2 (D); or r-BoGM-CSF(G). The total percentage of phagocytosis by milk PMNs (polymorphonuclear cells) is quantitatively measured by flow cytometry by measuring the percentage of cells ingesting 2μ fluorescent beads for r-BoIL-1 (B); r-BoIL-2(E); or r-BoGM-CSF(H). The total population is first gated by forward angle light scatter, FALS and 90° light scatter to only consider viable polymorphonuclear cells. The induction of superoxide after PMA (520.eta.g)stimulation is also monitored using a whole cell cytochrome-c reduction assay, for r-BoIL-1 (C); r-BoIL-2(F); or r-BoGM-CSF(I). PMNs from untreated milk could not be induced to produce superoxide, while peripheral blood PMNs are inducible in a range of 5-15 .eta.M O2 /Minute/10^7 PMNs.

[2] = system: S. aureus; assay: Therapy of established S. aureus mastitis infections; type: in vivo, S. aureus (in lactating Holstein dairy cattle); conditions: for most efficacious dosing: compared with a single bolus; for dose response of therapeutic efficacy / therapeutic efficacy in infected mammary glands: intramammary infusion
Protocol: The percentage of quarters clearing the infection for greater than 1 milking (RESPONDING), as compared to the percentage of quarters which actually cure their infections (CURE) is a measure of the failure of the host cells to kill the bacteria. The relapse rate is the greatest for r-BoIL-2 (combined relapse rate of 40% for the 10 mg dose X's 3). […] Furthermore, if activation of the host cells is effective, as indicated by the r-BoIL-2 and r-BoGM-CSF, then a combination therapy with r-BoIL-1 or antibiotics is useful.
^1 S. aureus infections are established 2-3 weeks prior to treatment.
Treatments are administered after the AM or PM milking by 1-3 successive
intramammary infusions. A total of 120 mammary glands from 28 different
lactating Holstein dairy cattle are used. Recombinant bovine
interleukin1(IL-1) and interleukin2(IL-2) are obtained from IMMUNEX Corp.
Seattle, WA. Na cephapirin is prepared is PBS; and CefaLak ®
(BristolMeyers) is used according to package# insert instructions.
^2 Cytokines are infused intramammary through the teat canal after th
PM milking at the indicated intervals. The total dose is delivered in a
total volume of 10 ml of sterile PBS. The biological activity of rBoIL-1
and rBoIL-2 is 32,000 Units/μg and 22,000 Units/μg, respectively. A
total dose per infusion 200 mg of Na cephapirin and CefaLak ® is
administered after consecutive PM and AM milkings, according to described
^3 The % RESPONDING = quarters which transiently (> 1 milking) are
free of S. aureus divided by the total number of quarters treated.
^4 The % CURED QUARTERS = # of quarters which clear their infection
and remain free of S. aureus divided by the total number of quarters
treated. Infections are considered to have relapsed if there are > 1 CFUs
from three consecutive AM milkings, or > 20 CFUs for two consecutive afte
therapy at anytime during the 14 day monitoring period.
^5 The % RELAPSE = [1 - {[…]}] ×

[3] = system: S. aureus; assay: Prevention of S. aureus mastitis in lactating animals; type: in vivo, S. aureus (in lactating Holstein dairy cattle); conditions: for % CONTROL / % INFECTED: vs Control 1; for protection from subsequent S. aureus challenge: intramammary infusion, Table 1; for most efficacious time of administration for protective effect: relative to S. aureus challenge
Text: This maximal protection correlates with the peak quantitative biological response for this cytokine. […] This also correlates with the peak quantitative biological response of this cytokine and also marks the qualitative increase in phagocytosis and inducible superoxide, FIG. 2D & 2E.
^1 Single intramammary infusion administered after the PM milking. A
total of 100 mammary glands from 22 different lactating Holstein dairy
^2 All glands are free of bacteria on 5 successive samples after the
AM milking prior to the initial infusion.
^3 The total dose in mass of protein is indicated. The biological
^4 Infusions of cytokines were administerd simultaneously with S.
aureus 0, 24 or 48 hours proir to challenge with 30-200 CFUs of S.
^5 Individual quarters are considered cured if the milk samples remai
free of S. aureus. for 14 days after intramammary challenge with of S.
^6 The % Control = (1 - {% Infected After Therapy divided by Infected
in Control Quarters)} × 100.
*Quarters in Control 1 are challenged with 250 CFUs of S. aureus..
Quarters in Control 2 are challenged with 30 CFUs of S. aureus.

[4] = system: milk PMNs; assay: Inducible superoxide of milk PMNs after PMA stimulation (cytochrome-c reduction); type: in vivo, bovine (Holstein dairy cattle)
Protocol: as §1, §2

[5] = Specific biological activity of recombinant cytokine protein; conditions: for in vitro specific bioactivities: r-BoIL-1 compared with r-BoIL-2; for biological activity: mass of protein
[6] = system: milk PMNs; assay: Quantity of milk PMNs after intramammary infusion; type: in vivo, bovine (Holstein dairy cattle)
Protocol: as §1, §2

[7] = IL-2 multiple, 2 mg, interval 24 hrs
[8] = IL-2 multiple, 10 mg, interval 24 hrs
[9] = IL-1 multiple, 10 μg, interval 24 hrs
[10] = IL-1 multiple, 10 μg, interval 48 hrs
[11] = IL-1 multiple, 200 μg, interval 24 hrs
[12] = IL-1 multiple, 200 μg, interval 48 hrs

B1: recombinant bovine interleukin-2 (protein, UniProt P05016 21-155, looked up)
Interleukin-2: APTSSSTGNTMKEVKSLLLDLQLLLEKVKNPENLKLSRMHTFDFYVPKVNATELKHLKCLLEELKLLEEVLNLAPSKNLNPREIKDSMDNIKRIVLELQGSETRFTCEYDDATVNAVEFLNKWITFCQSIYSTMT
notes: recombinant bovine interleukin-2, obtained from IMMUNEX Corp. Seattle, WA
percent phagocytosis ([1]; by 112 hrs, 2 mg r-BoIL-2, FIG. 2E): still above the pre-treatment level
average number of ingested beads per phagocytic cell ([1]; r-BoIL-2, upon activation): increased upon activation
phagocytosis increase over resident PMNs ([1]; within 40-64 hours, 2 mg r-BoIL-2, FIG. 2E): 2-3 fold
combined relapse rate ([2]; 10 mg dose X's 3): 40%
% CURES [2, 7]: 9%
% RELAPSE [2, 7]: 84%
% RESPONSE [2, 7]: 55%
% CURES [2, 8]: 25%
% RELAPSE [2, 8]: 57%
% RESPONSE [2, 8]: 58%
% RESPONSE ([2]; IL-2 multiple, 10 mg, interval 48 hrs): 33%
% CURES ([2]; IL-2 single, 2 μg): 0%
% RESPONSE ([2]; IL-2 single, 2 μg): 0%
% CURES ([2]; IL-2 single, 10 μg): 0%
% RELAPSE ([2]; IL-2 single, 10 μg): 100%
% RESPONSE ([2]; IL-2 single, 10 μg): 20%
% CURES ([2]; IL-2 single, 30 μg): 10%
% RELAPSE ([2]; IL-2 single, 30 μg): 0%
% RESPONSE ([2]; IL-2 single, 30 μg): 10%
most efficacious dosing [2]: most efficacious if doses are administered over 3 consecutive milkings
dose response of therapeutic efficacy [2]: dose response therapeutic efficacy
therapeutic efficacy in infected mammary glands [2]: effectively treated
% CONTROL ([3]; 1 mg, 0 hrs): 23%
% INFECTED ([3]; 1 mg, 0 hrs): 77%
% CONTROL ([3]; 1 mg, -24 hrs): 89%
% INFECTED ([3]; 1 mg, -24 hrs): 11%
% CONTROL ([3]; 1 mg, -48 hrs): 63%
% INFECTED ([3]; 1 mg, -48 hrs): 37%
protection from subsequent S. aureus challenge [3]: capable of protecting the host from subsequent S. aureus challenge
most efficacious time of administration for protective effect [3]: most efficacious if administered 48 hours prior to S. aureus challenge
inducible superoxide, duration ([4]; 2 mg r-BoIL-2, FIG. 2F): remains throughout the 96 hours of sampling
inducible superoxide ([4]; 2 mg r-BoIL-2, vs resident PMNs, FIG. 2F): significantly increased over the resident PMNs
in vitro specific bioactivities [5]: equivalent
biological activity [5]: 22,000 Units/μg
biological activity ([5]; Table 3 footnote 3): 22,000 Units μg
milk PMNs (quantity) ([6]; 2 mg, FIG. 2D): quantitative increase in milk PMNs
milk PMNs (quantity), decline ([6]; after 72 hours, 2 mg, FIG. 2D): diminishes after 72 hours, to control levels

B2: recombinant bovine interleukin-1 (protein, UniProt P09428 114-266, looked up)
Interleukin-1 beta: APVQSIKCKLQDREQKSLVLASPCVLKALHLLSQEMNREVVFCMSFVQGEERDNKIPVALGIKDKNLYLSCVKKGDTPTLQLEEVDPKVYPKRNMEKRFVFYKTEIKNTVEFESVLYPNWYISTSQIEERPVFLGHFRGGQDITDFRMETLSP
notes: recombinant bovine interleukin-1, obtained from IMMUNEX Corp. Seattle, WA
phagocytosis ([1]; 200 μg r-BoIL-1, FIG. 2B): unaffected
% CURES [2, 9]: 8%
% RELAPSE [2, 9]: 90%
% RESPONSE [2, 9]: 77%
% CURES [2, 10]: 0%
% RELAPSE [2, 10]: 100%
% RESPONSE [2, 10]: 39%
% CURES [2, 11]: 7%
% RELAPSE [2, 11]: 91%
% RESPONSE [2, 11]: 79%
% CURES [2, 12]: 29%
% RELAPSE [2, 12]: 54%
% RESPONSE [2, 12]: 64%
% CURES ([2]; IL-1 single, 10 μg): 11%
% RELAPSE ([2]; IL-1 single, 10 μg): 0%
% RESPONSE ([2]; IL-1 single, 10 μg): 11%
% CURES ([2]; IL-1 single, 200 μg): 0%
% RELAPSE ([2]; IL-1 single, 200 μg): 100%
% RESPONSE ([2]; IL-1 single, 200 μg): 20%
% CURES ([2]; IL-1 single, 600 μg): 0%
% RELAPSE ([2]; IL-1 single, 600 μg): 100%
% RESPONSE ([2]; IL-1 single, 600 μg): 10%
relapse rate ([2]; as quoted in text of Example 5): 54%
most efficacious dosing [2]: most efficacious if doses are administered over 3 consecutive milkings
dose response of therapeutic efficacy [2]: dose response therapeutic efficacy
therapeutic efficacy in infected mammary glands [2]: effectively treated
% CONTROL ([3]; 1 μg, 0 hrs): 87%
% INFECTED ([3]; 1 μg, 0 hrs): 13%
% CONTROL ([3]; 1 μg, -24 hrs): 100%
% INFECTED ([3]; 1 μg, -24 hrs): 0%
% CONTROL ([3]; 1 μg, -48 hrs): 78%
% INFECTED ([3]; 1 μg, -48 hrs): 22%
protection from subsequent S. aureus challenge [3]: capable of protecting the host from subsequent S. aureus challenge
most efficacious time of administration for protective effect [3]: most efficacious if administered 24 hours prior to S. aureus challenge
inducible superoxide upon phorbol ester stimulation ([4]; 200 μg r-BoIL-1, vs resident PMNs, FIG. 2C): significantly increased over the resident PMNs
in vitro specific bioactivities [5]: equivalent
biological activity [5]: 32,000 Units/μg
increase over the pre-treatment number of PMNs ([6]; 16 hours, 200 μg, FIG. 2A): 150 ×
increase over the pre-treatment number of PMNs ([6]; 40 hours, 200 μg, FIG. 2A): 20 ×
number of PMNs ([6]; by 112 hours, 200 μg, FIG. 2A): back to normal levels by 112 hours
